Assay results published in patent US20210188980A1 (SHANGHAI EPIMAB BIOTHERAPEUTICS, published 2021).
Residue numbers refer to the chain shown, from its start.

T1: recombinant human LAG-3-his protein (Novoprotein) (human, UniProt P18627 23-450)
T1 construct: Bought; also called huLAG-3; not shown: His tag
T1 sequence (looked up): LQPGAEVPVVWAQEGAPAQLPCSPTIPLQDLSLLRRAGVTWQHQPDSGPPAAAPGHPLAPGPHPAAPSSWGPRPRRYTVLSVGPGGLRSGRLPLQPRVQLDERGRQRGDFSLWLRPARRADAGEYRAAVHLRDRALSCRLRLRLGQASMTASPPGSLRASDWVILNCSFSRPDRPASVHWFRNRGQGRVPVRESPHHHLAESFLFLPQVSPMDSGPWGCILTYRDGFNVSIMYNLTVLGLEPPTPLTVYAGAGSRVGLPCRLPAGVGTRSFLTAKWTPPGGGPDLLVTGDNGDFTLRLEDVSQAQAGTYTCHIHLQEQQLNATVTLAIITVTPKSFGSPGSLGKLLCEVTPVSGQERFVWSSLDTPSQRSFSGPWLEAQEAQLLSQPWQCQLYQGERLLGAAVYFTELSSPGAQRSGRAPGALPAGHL

B1: HumAb747V-63 (antibody, human IgG1, V domains shown)
VH: EVQLVQSGAEVKKPGATVKLSCTASGFNIKDDYMHWVKQRPEQGLDWIGWIVPRNGNTMYASKFQGKATITADTSTNTAYLELSSLRSEDTAVYYCTVYGDYWGQGTTVTVSS
VL: DIQMTQSPSSLSASVGDRVTITCRASQEISGYLSWLQQKPGGAIKRLIYAASALDSGVPSRFSGSRSGSDYTLTISSLQPEDFADYYCLQYASYPLTFGQGTKLELK
notes: engineered HumAb747-60 variant; human IgG1/kappa constant domains
B2: HumAb747V-64 (antibody, human IgG1, V domains shown)
VH: B1 VH
VL: B1 VL with S56L
notes: as for B1
B3: HumAb747V-65 (antibody, human IgG1, V domains shown)
VH: B1 VH
VL: B1 VL with A53T
notes: as for B1
B4: HumAb747V-62 (antibody, human IgG1, V domains shown)
VH: B1 VH
VL: B1 VL with A53T, S56L
notes: as for B1
B5: HumAb747V-66 (antibody, human IgG1, V domains shown)
VH: B1 VH with R54E, M59V
VL: B1 VL with A53T, S56L
notes: as for B1
B6: HumAb747V-61 (antibody, human IgG1, V domains shown)
VH: B1 VH with G26D, R54E, G56A, M59E
VL: B1 VL with A53T
notes: human IgG1/kappa constant domains
B7: HumAb747-54 (antibody, human IgG1, V domains shown)
VH: B1 VH with G26D, R40A, E42G, Q43K, D46E, R54E, M59E, K67R
VL: B1 VL with A53T
notes: humanized mAb747; human IgG1/kappa constant domains
B8: HumAb747-49 (antibody, human IgG1, V domains shown)
VH: EVQLVQSGAEVKKPGATVKLSCTASDFNIKDDYMHWVQQAPGKGLEWIGWIVPENGNTEYASKFQGRVTITADTSTDTAYLELSSLRSEDTAVYYCTVYGDYWGQGTTVTVSS
VL: B1 VL with G42K, A53T, S69T, Y71F, D85T, L106I
notes: as for B7
B9: HumAb747-53 (antibody, human IgG1, V domains shown)
VH: B8 VH
VL: B1 VL with A53T
notes: as for B7
B10: HumAb747-50 (antibody, human IgG1, V domains shown)
VH: B8 VH with Q38K, V68A, D77N
VL: B1 VL with G42K, A53T, S69T, Y71F, D85T, L106I
notes: as for B7
B11: HumAb747-52 (antibody, human IgG1, V domains shown)
VH: B8 VH with T23K
VL: B1 VL with A53T
notes: as for B7
B12: HumAb747-51 (antibody, human IgG1, V domains shown)
VH: B8 VH with L20I, T23K, A24V
VL: B1 VL with A53T
notes: as for B7
B13: HumAb747V-68 (antibody, human IgG1, V domains shown)
VH: B1 VH with R54E, M59V
VL: B1 VL with S56L
notes: as for B1
B14: HumAb747V-69 (antibody, human IgG1, V domains shown)
VH: B1 VH with R54E, M59V
VL: B1 VL with A53T
notes: as for B1
B15: HumAb747V-71 (antibody, human IgG1, V domains shown)
VH: B1 VH with M59V
VL: B1 VL
notes: as for B1
B16: HumAb747V-72 (antibody, human IgG1, V domains shown)
VH: B1 VH with M59V
VL: B1 VL with S56L
notes: as for B1
B17: HumAb747V-70 (antibody, human IgG1, V domains shown)
VH: B1 VH with M59V
VL: B1 VL with A53T, S56L
notes: as for B1
B18: B3-69-IgG (antibody, V domains shown)
VH: EVQLVQSGAEVKKPGASVKVSCKASGFNIKDDYMHWVRQAPGQGLEWIGWIVPENGNTHYASKFQGRVTITADTSINTAYMELSRLRSDDTAVYYCTVYGDYWGQGTTVTVSS
VL: B1 VL with T22N, G41E, A43T, A50E, A53T, D85T, Q100G, L104V, L106I
notes: as for B6
B19: B3-46-IgG (antibody, V domains shown)
VH: B18 VH with N57L, H59E
VL: B1 VL with T22N, G41E, A43T, A51T, A53T, D85T, Q100G, L104V, L106I
notes: as for B6
B20: B2-53-IgG (antibody, V domains shown)
VH: B18 VH with H59V
VL: B1 VL with T22N, G41E, A43T, D85T, Q100G, L104V, L106I
notes: human IgG1/kappa constant domains; also called B82-53
B21: B3-48-IgG (antibody, V domains shown)
VH: B18 VH with G26D, N28S, N57K, H59E
VL: B1 VL with T22N, G41E, A43T, S52M, A53T, D85T, Q100G, L104V, L106I
notes: as for B6
B22: B3-43-IgG (antibody, V domains shown)
VH: B18 VH with R38C, H59E
VL: B1 VL with T22N, G41E, A43T, A53H, D85T, Q100G, L104V, L106I
notes: as for B6
B23: B3-21-IgG (antibody, V domains shown)
VH: B18 VH with G26D, H59E, Y102V
VL: B1 VL with T22N, S26M, G41E, A43T, A53T, D85T, S93Y, Q100G, L104V, L106I
notes: as for B6
B24: HumAb747-48 (antibody, human IgG1, V domains shown)
VH: B8 VH with T23K
VL: B1 VL with G42K, A53T, S69T, Y71F, D85T, L106I
notes: as for B7
B25: HumAb747-47 (antibody, human IgG1, V domains shown)
VH: B8 VH with L20I, T23K, A24V
VL: B1 VL with G42K, A53T, S69T, Y71F, D85T, L106I
notes: as for B7

Each binder was assayed against T1, recombinant human LAG-3-his protein … (assay: BLI Octet, Ab on AHC sensor, huLAG-3-his; test group 1).
Description: (§1) All 9 humanized antibodies (Table 25) and a chimeric antibody having the parental murine VH and VL domains (mAb747c) were ranked by dissociation rate constant (koff). Briefly, antibodies were characterized for affinities and binding kinetics by Octet RED96 biolayer interferometry (Pall FortéBio LLC). Antibodies were captured by Anti-HIgG Fc Capture (AHC) Biosensors (Pall) at a concentration of 100 nM for 30 seconds. Sensors were then dipped into running buffer (1× pH7.2 PBS, 0.05% Tween 20, 0.1% BSA) for 60 seconds to check baseline. Binding was measured by dipping sensors into a single concentration of recombinant human LAG-3-his protein (Novoprotein). Dissociation was followed by dipping sensors into running buffer for 1200 seconds. The association and dissociation curves were fitted to a 1:1 Langmuir binding model using FortéBio Data Analysis software (Pall).
(§2) All 13 humanized antibodies (Table 39) and chimeric anti-LAG-3 antibody mAb747c having the parental murine VH and VL domains were ranked by dissociation rate constant (koff) in the same manner described in Example 9.1 supra. In each test group, the off-rates of antibodies were able to be compared with that of mAb747c. The off-rate ratios were calculated by the off-rate of antibody to that of mAb747c of its group and were compared all together. The lower the ratio was, the higher was the affinity of the antibody.

koff [s⁻¹] | off-rate ratio to that of mAb747c [%] | Binder
0.000522 | 85 | B1
0.00045 | 73 | B2
0.000292 | 47 | B3
0.00048 | 78 | B4
0.000584 | 95 | B5
0.000686 | 112 | B6

Each binder was assayed against T1, recombinant human LAG-3-his protein … (assay: BLI Octet, Ab on AHC sensor, huLAG-3-his; test group 2).
Description: as §1, with “All 18” for “All 9”, “(Table 34)” for “(Table 25)”, “by Octet®RED96” for “by Octet RED96”, “(Pall ForteBio” for “(Pall FortéBio”, “by Anti-hIgG” for “by Anti-HIgG”, “(Pall). In each test group, the off-rates of antibodies were able to be compared with that of mAb747c. The off-rate ratios were calculated by the off-rate of antibody to that of mAb747c of its group and were compared all together. The lower the ratio was, the higher was the affinity of the antibody.” for “(Pall).”

koff [s⁻¹] | off-rate ratio to that of mAb747c [%] | Binder
0.00423 | 314 | B7
0.00773 | 575 | B8
0.0043 | 319 | B9
0.00719 | 534 | B10
0.00436 | 324 | B11
0.0119 | 888 | B12

Molecular target: T1, recombinant human LAG-3-his protein …
Assay: as above
Remark: another data set of the same source
Description: as §1, §2

koff [s⁻¹] | off-rate ratio to that of mAb747c [%] | Binder
0.000295 | 41 | B13
0.000357 | 53 | B14
0.000292 | 43 | B15
0.000247 | 37 | B16
0.000273 | 40 | B17

Molecular target: T1, recombinant human LAG-3-his protein …
Assay: BLI Octet, Ab on AHC sensor, huLAG-3-his; test group 1
Remark: another data set of the same source
Description: as §1
The seven Fab clones were converted to full IgG proteins. Briefly, the VH and VL genes were produced synthetically and then cloned into vectors containing coding sequences for the human IgG1 and human kappa constant domains, respectively. The heavy chain and cognate light chain plasmids were co-transfected into HEK 293E cells, individually. After approximately six days of post-transfection cell culture, the supernatants were harvested and subjected to Protein A affinity chromatography. The affinity of purified antibodies was ranked by Octet® RED96 biolayer interferometry (see, Example 9.1, supra).

koff [s⁻¹] | off-rate ratio to that of mAb747c [%] | Binder
0.00359 | 239 | B18
0.00248 | 165 | B19
0.0018 | 120 | B20
0.00285 | 190 | B21
0.00588 | 392 | B22
0.00198 | 132 | B23

Molecular target: T1, recombinant human LAG-3-his protein …
Assay: as above
Remark: another data set of the same source
Description: as §1, with “All 18” for “All 9”, “(Table 34)” for “(Table 25)”, “by Octet®RED96” for “by Octet RED96”, “(Pall ForteBio” for “(Pall FortéBio”, “by Anti-hIgG” for “by Anti-HIgG”, “(Pall). In each test group, the off-rates of antibodies were able to be compared with that of mAb747c. The off-rate ratios were calculated by the off-rate of antibody to that of mAb747c of its group and were compared all together. The lower the ratio was, the higher was the affinity of the antibody.” for “(Pall).”

koff [s⁻¹] | off-rate ratio to that of mAb747c [%] | Binder
0.00803 | 592 | B24
0.0144 | 1060 | B25
